Consider one molecule from patent US20130115256A1 (published 2013).

Assay in all cases: cell-based or functional assay
For assay [1], the target named is JNK (c-Jun N-terminal Kinase).
Assay [2] deals with T1, MKK4 (Mitogen-Activated Protein Kinase Kinase 4) (UniProt P45985 1-399).
T1 sequence: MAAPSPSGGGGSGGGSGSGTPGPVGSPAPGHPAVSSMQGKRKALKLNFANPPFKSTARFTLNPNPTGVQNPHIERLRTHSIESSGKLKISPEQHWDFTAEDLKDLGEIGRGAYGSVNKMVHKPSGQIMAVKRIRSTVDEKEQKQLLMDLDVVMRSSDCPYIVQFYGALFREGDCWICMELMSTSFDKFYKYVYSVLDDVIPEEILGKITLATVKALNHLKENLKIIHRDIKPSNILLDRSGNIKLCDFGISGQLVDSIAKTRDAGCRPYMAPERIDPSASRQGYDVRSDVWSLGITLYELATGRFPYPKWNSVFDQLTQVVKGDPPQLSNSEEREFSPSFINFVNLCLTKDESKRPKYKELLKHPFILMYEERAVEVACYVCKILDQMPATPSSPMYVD

Assay [3] deals with T2, MKK6 (Mitogen-Activated Protein Kinase Kinase) (UniProt P52564 1-334).
T2 sequence: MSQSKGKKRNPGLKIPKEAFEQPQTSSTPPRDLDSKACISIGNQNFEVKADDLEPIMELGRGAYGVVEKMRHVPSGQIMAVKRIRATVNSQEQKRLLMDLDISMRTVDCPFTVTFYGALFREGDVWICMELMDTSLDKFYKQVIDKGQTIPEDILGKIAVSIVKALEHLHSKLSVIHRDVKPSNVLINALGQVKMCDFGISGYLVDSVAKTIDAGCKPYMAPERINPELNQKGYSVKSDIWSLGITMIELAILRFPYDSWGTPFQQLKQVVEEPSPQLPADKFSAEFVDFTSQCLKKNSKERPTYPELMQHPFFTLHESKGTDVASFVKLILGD

In assay [4] the target is MEK1 (Meiosis-specific serine/threonine protein kinase) (UniProt Q02750 1-393).
In assay [5] the target is T3, PRAK (p38-Regulated/Activated Protein Kinase) (UniProt Q8IW41 1-473).
T3 sequence: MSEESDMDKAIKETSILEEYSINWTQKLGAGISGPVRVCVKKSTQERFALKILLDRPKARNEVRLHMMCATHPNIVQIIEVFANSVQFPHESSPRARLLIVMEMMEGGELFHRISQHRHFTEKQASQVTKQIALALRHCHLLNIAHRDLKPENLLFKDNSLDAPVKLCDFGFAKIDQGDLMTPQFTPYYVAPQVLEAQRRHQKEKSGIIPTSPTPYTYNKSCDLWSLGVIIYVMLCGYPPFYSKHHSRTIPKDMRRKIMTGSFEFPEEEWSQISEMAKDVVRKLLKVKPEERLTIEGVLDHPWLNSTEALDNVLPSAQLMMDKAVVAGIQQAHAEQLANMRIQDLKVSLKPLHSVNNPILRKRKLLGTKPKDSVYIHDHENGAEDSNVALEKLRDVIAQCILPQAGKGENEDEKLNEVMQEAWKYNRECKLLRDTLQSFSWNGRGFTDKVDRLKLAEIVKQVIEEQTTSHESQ

The target of assay [6] is p38 MAPK (p38 Mitogen-Activated Protein Kinase).

Where no end group is shown, it is not given here.

B1: MMI-0100 (YARAAARQARAKALARQLGVAA; SEQ ID NO: 1) (peptide)
peptide: YARAAARQARAKALARQLGVAA
modifications: not fully specified (C-terminus)
For the molecule B1, the “Percent Activity (radiometric kinase assay, peptide at 100 µM)” value in assay [1] was determined as 92 % activity; in assay [2], 90 % activity; in assay [3], 50 % activity; in assay [4] it was 68 % activity; in assay [5] it was 100 % activity; in assay [6] it was 60 % activity.
